Results taken from PMC11996608 (Nature structural & molecular biology, 2025).

Legend:
[1] = target: Eco RNAP β subunit (Escherichia coli, UniProt P0A8V2 1-1342); assay: cryo-EM structure
[2] = target: Eco RNAP β' subunit (β'-PPX-His10) (Escherichia coli, UniProt P0A8T7 1-1407); assay: cryo-EM structure
Chain of Eco RNAP β' subunit (β'-PPX-His10) (P0A8T7 whole entry): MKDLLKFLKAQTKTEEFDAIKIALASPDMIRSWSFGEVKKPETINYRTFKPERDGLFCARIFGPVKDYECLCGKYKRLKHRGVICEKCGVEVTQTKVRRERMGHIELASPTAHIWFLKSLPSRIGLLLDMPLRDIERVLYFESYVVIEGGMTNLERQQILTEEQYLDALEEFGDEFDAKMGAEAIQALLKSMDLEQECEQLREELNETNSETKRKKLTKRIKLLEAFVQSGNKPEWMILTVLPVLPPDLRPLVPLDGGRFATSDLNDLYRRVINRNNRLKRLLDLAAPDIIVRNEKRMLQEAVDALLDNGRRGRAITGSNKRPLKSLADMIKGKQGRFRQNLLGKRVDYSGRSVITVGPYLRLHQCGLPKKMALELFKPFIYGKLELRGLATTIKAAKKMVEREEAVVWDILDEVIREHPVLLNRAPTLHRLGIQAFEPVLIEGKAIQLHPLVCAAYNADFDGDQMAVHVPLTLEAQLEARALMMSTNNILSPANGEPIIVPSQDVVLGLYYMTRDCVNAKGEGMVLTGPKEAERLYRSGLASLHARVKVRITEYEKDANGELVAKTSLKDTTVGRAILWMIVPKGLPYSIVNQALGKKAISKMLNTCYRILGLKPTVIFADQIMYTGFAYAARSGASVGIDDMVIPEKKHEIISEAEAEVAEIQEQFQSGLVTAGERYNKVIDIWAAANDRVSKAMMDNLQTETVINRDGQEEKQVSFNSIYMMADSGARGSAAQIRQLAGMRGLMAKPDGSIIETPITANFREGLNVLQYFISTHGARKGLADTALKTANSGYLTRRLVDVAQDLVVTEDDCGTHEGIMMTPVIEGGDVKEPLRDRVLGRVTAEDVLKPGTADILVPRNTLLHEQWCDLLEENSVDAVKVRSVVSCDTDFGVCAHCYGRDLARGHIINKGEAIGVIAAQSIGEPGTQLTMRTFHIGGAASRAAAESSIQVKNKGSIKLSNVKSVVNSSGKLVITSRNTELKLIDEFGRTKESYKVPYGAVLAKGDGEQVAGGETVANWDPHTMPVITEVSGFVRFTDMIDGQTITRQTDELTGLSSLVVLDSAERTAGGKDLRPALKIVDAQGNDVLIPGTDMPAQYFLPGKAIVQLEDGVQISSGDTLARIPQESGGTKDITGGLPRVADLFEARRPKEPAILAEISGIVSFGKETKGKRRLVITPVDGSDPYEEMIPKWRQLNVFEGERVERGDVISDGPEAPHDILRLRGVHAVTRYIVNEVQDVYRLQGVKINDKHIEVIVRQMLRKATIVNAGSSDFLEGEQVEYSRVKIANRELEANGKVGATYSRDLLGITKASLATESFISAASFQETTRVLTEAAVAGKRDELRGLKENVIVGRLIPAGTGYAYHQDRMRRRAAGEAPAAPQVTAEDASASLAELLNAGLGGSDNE

Chain of Eco RNAP β subunit (P0A8V2 whole entry): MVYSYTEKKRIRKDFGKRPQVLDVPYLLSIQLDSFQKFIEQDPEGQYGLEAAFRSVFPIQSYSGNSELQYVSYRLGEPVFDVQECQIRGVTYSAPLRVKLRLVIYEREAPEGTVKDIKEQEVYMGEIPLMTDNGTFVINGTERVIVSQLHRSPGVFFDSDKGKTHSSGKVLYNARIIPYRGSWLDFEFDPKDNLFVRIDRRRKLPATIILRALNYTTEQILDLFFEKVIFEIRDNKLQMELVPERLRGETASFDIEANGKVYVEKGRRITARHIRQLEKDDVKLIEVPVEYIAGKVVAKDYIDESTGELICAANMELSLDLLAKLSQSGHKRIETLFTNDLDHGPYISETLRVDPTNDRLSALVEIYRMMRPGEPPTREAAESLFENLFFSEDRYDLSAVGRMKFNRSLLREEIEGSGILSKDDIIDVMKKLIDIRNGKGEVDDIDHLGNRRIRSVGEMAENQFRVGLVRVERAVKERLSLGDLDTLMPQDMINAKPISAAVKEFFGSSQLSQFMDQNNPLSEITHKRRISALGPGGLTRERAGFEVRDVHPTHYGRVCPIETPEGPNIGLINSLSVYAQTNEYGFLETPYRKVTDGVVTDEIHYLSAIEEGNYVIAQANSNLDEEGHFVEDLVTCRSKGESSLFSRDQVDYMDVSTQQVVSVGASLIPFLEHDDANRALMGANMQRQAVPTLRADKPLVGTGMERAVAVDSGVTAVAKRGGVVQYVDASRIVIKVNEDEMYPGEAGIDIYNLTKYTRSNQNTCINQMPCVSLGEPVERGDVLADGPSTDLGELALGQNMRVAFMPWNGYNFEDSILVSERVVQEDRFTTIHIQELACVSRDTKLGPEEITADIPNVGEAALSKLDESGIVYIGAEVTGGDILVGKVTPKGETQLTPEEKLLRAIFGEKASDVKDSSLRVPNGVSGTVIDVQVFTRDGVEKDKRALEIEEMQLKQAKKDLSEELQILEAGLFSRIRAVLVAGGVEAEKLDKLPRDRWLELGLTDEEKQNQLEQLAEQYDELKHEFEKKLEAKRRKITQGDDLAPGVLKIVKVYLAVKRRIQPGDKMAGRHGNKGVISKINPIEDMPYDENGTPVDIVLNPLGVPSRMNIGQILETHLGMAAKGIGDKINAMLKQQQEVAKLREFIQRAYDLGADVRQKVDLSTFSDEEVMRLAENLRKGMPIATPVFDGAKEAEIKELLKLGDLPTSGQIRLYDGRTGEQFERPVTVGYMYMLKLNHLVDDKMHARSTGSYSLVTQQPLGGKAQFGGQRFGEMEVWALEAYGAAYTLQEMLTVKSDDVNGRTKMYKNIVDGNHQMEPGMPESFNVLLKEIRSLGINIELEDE

B1: Eco RapA (N-terminally His6-tagged full-length RapA) (enzyme, Escherichia coli, UniProt P60240 1-968, looked up)
chain: MPFTLGQRWISDTESELGLGTVVAVDARTVTLLFPSTGENRLYARSDSPVTRVMFNPGDTITSHDGWQMQVEEVKEENGLLTYIGTRLDTEESGVALREVFLDSKLVFSKPQDRLFAGQIDRMDRFALRYRARKYSSEQFRMPYSGLRGQRTSLIPHQLNIAHDVGRRHAPRVLLADEVGLGKTIEAGMILHQQLLSGAAERVLIIVPETLQHQWLVEMLRRFNLRFALFDDERYAEAQHDAYNPFDTEQLVICSLDFARRSKQRLEHLCEAEWDLLVVDEAHHLVWSEDAPSREYQAIEQLAEHVPGVLLLTATPEQLGMESHFARLRLLDPNRFHDFAQFVEEQKNYRPVADAVAMLLAGNKLSNDELNMLGEMIGEQDIEPLLQAANSDSEDAQSARQELVSMLMDRHGTSRVLFRNTRNGVKGFPKRELHTIKLPLPTQYQTAIKVSGIMGARKSAEDRARDMLYPERIYQEFEGDNATWWNFDPRVEWLMGYLTSHRSQKVLVICAKAATALQLEQVLREREGIRAAVFHEGMSIIERDRAAAWFAEEDTGAQVLLCSEIGSEGRNFQFASHMVMFDLPFNPDLLEQRIGRLDRIGQAHDIQIHVPYLEKTAQSVLVRWYHEGLDAFEHTCPTGRTIYDSVYNDLINYLASPDQTEGFDDLIKNCREQHEALKAQLEQGRDRLLEIHSNGGEKAQALAESIEEQDDDTNLIAFAMNLFDIIGINQDDRGDNMIVLTPSDHMLVPDFPGLSEDGITITFDREVALAREDAQFITWEHPLIRNGLDLILSGDTGSSTISLLKNKALPVGTLLVELIYVVEAQAPKQLQLNRFLPPTPVRMLLDKNGNNLAAQVEFETFNRQLNAVNRHTGSKLVNAVQQDVHAILQLGEAQIEKSARALIDAARNEADEKLSAELSRLEALRAVNPNIRDDELTAIESNRQQVMESLDQAGWRLDALRLIVVTHQ
- binding result [1]: binds
- binding result [2]: binds
